Measurements: patent US20090075929A1 (BOARD OF TRUSTEES OF THE UNIVERSITY OF ILLINOIS, published 2009)

B1: caspase-8 (pro-caspase-8, p55/53), endogenous (enzyme, UniProt Q14790 1-479, looked up)
chain: MDFSRNLYDIGEQLDSEDLASLKFLSLDYIPQRKQEPIKDALMLFQRLQEKRMLEESNLSFLKELLFRINRLDLLITYLNTRKEEMERELQTPGRAQISAYRVMLYQISEEVSRSELRSFKFLLQEEISKCKLDDDMNLLDIFIEMEKRVILGEGKLDILKRVCAQINKSLLKIINDYEEFSKERSSSLEGSPDEFSNGEELCGVMTISDSPREQDSESQTLDKVYQMKSKPRGYCLIINNHNFAKAREKVPKLHSIRDRNGTHLDAGALTTTFEELHFEIKPHDDCTVEQIYEILKIYQLMDHSNMDCFICCILSHGDKGIIYGTDGQEAPIYELTSQFTGLKCPSLAGKPKVFFIQACQGDNYQKGIPVETDSEEQPYLEMDLSSPQTRYIPDEADFLLGMATVNNCVSYRNPAEGTWYIQSLCQSLRERCPRGDDILTILTEVNYEVSNKDDKKNMGKQMPQPTFTLRKKLVFPSD
B2: FADD, endogenous (other, UniProt Q13158 1-208, looked up)
chain: MDPFLVLLHSVSSSLSSSELTELKFLCLGRVGKRKLERVQSGLDLFSMLLEQNDLEPGHTELLRELLASLRRHDLLRRVDDFEAGAAAGAAPGEEDLCAAFNVICDNVGKDWRRLARQLKVSDTKIDSIEDRYPRNLTERVRESLRIWKNTEKENATVAHLVGALRSCQMNLVADLVQEVQQARDLQNRSGAMSPMSWNSDASTSEAS

What was measured:
[1] = target: T1, wild-type MADD (wtMADD), YFP-tagged, expressed in HEK293 or HeLa cells (Homo sapiens (Human), UniProt Q8WXG6 1-1647, phosphorylated in cells at S70, T173 and T1041 (recognized by anti-phospho S70, T173 and T1041 antibodies)); assay: co-IP with anti-IG20 antibody from HeLa cells expressing MADD-YFP, western blot; also not seen in the reverse IP with anti-caspase-8
T1 construct: Exogenous MADD detected with anti-YFP antibody; Order of MADD and YFP is uncertain; also called YFP-MADD; exogenous MADD; not shown: YFP tag
From the text: (§1) These proteins were separated by SDS-PAGE and subjected to western blot analysis to probe for DISC components.
(§2) Samples were lysed, and the lysates were normalized for protein concentration and pre-cleared. […] Complexes were subjected to immunoblotting (WB, Western blot).

[2] = target: T2, DR4 (death receptor 4, a TRAIL receptor), endogenous (UniProt O00220 24-468); assay: IP of DR4 from HeLa lysates, immunoblot for FADD
T2 construct: Endogenous protein immunoprecipitated or blotted from lysates of human cell lines; also called endogenous DR4; DRs
From the text: DR4 and DR5 from HeLa and PA-1 cells respectively were immunoprecipitated and probed for known DISC components. […] Forty-eight-hour transduced HeLa cells and PA-1 cells were collected and lysed. Lysates were normalized for protein concentration, and DR4s/DR5s were immunoprecipitated using specific antibodies.

[3] = target: T1, wild-type MADD (wtMADD), YFP-tagged, …; assay: co-IP from HeLa cells expressing MADD-YFP, western blot
From the text: as §1, §2

Binder | binding result [1] | binding result [2] | binding result [3]
B1 | no binding | – | –
B2 | – | binds | no binding
